Legend:
Assay in all cases: luminescence, global fit of progress curves
Format in all cases: biochemical, Oplophorus gracilirostris
Conditions in all cases: 100 mM potassium phosphate pH 7.50, 37 °C, co-substrate O2, pH 7.5
[1] = substrate: O=c1c(Cc2ccco2)nc2c(Cc3ccccc3)[nH]c(-c3ccccc3)cn1-2
From the text: (§1) luminescence, global fit of progress curves on NanoLuc luciferase (NLuc)

[2] = substrate: Oc1ccc(Cc2nc3c(Cc4ccccc4)nc(-c4ccc(O)cc4)cn3c2O)cc1
From the text: as §1

[3] = substrate: O=c1c(Cc2ccco2)nc2c(Cc3ccccc3)[nH]c(-c3ccccc3)cn1-2; remark: listed apart in the source
[4] = substrate: Oc1ccc(Cc2nc3c(Cc4ccccc4)nc(-c4ccc(O)cc4)cn3c2O)cc1; remark: listed apart in the source

Row | Protein | Km [1] [µM] | kcat [1] [s⁻¹] | kcat/Km [1] [M⁻¹ s⁻¹] | Km [2] [µM] | kcat [2] [s⁻¹] | kcat/Km [2] [M⁻¹ s⁻¹] | Km [3] [µM] | kcat [3] [s⁻¹] | kcat/Km [3] [M⁻¹ s⁻¹] | Km [4] [µM] | kcat [4] [s⁻¹] | kcat/Km [4] [M⁻¹ s⁻¹]
1 | NanoLuc luciferase (NLuc) (Oplophorus gracilirostris; A31E/A60N/A81I/F95D/I117V/K70R/L54V/L99Q/M102K/N193R/P142E/Q151K/Q38R/Q45L/V71I/Y121A/Y165I) (protein, engineered 19 kDa catalytic subunit of OLuc (16 residues mutated); monomer in solution, homotetramer in crystals) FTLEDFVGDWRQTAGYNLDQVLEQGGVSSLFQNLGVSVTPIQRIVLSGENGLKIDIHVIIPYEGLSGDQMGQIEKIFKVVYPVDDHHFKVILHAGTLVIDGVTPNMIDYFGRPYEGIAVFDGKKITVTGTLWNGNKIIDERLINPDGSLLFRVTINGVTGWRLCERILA | 1.29 ± 0.02 | 0.519 ± 0.007 | 402000 ± 6000 | 3.74 ± 0.09 | 0.225 ± 0.004 | 60000 ± 1000 | – | – | – | – | – | –
2 | NanoLuc luciferase (NLuc) (Oplophorus gracilirostris; A31E/A60N/A81I/D36R/F95D/H84A/I117V/K116R/K70R/L54V/L99Q/M102K/N193R/P142E/Q151K/Q38R/Q45L/V71I/Y165I) (protein, engineered 19 kDa catalytic subunit of OLuc (16 residues mutated); monomer in solution, homotetramer in crystals) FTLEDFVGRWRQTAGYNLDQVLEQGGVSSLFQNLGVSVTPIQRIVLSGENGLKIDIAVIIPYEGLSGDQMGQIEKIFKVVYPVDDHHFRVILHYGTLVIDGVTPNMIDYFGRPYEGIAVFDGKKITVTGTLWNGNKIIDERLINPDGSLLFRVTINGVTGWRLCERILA | – | – | – | 0.77 ± 0.07 | 40 ± 4 | 7e+07 ± 7e+06 | – | – | – | – | – | –
3 | NanoLuc luciferase (NLuc) (Oplophorus gracilirostris; A31E/A60N/A81I/D36R/F95D/I117V/K116R/K70R/L54V/L99Q/M102K/N193R/P142E/Q151K/Q38R/Q45L/V71I/Y165I) (protein, engineered 19 kDa catalytic subunit of OLuc (16 residues mutated); monomer in solution, homotetramer in crystals) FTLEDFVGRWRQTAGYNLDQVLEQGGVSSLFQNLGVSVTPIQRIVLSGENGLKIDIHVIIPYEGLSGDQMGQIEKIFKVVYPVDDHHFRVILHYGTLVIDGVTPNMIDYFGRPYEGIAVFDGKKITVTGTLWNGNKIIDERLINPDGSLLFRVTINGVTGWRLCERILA | – | – | – | – | – | – | 0.157 ± 0.009 | 5.2 ± 0.1 | 3.3e+07 ± 2e+06 | 0.46 ± 0.01 | 16.8 ± 0.6 | 3.7e+07 ± 1e+06

Reference: paper PMC10687086, “Illuminating the mechanism and allosteric behavior of NanoLuc luciferase” (Nature Communications, 2023)
